Source: PMC9723941

Biological target: GFPuv (heat-aggregated)
Test: BLI; aggregated GFPuv as the sensor-bound substrate; Ssa1 and Ydj1 in solution; As(III) at the aggregation step (Fig. S3A)

Chain of Ssa1 (P10591 whole entry): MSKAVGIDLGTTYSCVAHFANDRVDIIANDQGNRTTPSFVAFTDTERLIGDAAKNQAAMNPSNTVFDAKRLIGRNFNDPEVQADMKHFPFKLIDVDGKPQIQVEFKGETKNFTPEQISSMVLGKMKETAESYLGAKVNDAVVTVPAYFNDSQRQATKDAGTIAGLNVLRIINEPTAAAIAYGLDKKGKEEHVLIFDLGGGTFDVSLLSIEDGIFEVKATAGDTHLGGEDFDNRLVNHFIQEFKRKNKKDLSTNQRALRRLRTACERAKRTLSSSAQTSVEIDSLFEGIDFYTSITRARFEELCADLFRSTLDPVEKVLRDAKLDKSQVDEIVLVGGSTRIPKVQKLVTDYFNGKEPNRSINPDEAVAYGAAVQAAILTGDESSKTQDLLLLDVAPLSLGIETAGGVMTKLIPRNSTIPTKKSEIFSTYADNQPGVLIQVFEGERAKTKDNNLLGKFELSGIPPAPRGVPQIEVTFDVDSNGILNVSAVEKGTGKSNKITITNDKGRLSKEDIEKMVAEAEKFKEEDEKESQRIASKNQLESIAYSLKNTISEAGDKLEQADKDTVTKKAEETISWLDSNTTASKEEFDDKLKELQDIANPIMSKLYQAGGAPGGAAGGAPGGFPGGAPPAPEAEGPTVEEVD
Chain of Ydj1 (P25491 whole entry): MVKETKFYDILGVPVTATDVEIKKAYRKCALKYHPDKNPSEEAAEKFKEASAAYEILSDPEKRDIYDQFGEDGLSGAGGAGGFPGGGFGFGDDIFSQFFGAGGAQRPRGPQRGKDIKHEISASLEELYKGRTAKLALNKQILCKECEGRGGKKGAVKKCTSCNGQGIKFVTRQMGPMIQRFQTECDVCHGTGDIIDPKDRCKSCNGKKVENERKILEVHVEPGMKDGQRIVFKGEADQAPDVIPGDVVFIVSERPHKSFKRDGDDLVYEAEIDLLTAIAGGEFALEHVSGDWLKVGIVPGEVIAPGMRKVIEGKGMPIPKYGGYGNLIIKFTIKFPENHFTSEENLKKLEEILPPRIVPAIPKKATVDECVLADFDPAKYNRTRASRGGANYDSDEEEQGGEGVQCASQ

Substance	reduction of binding to aggregates generated in the presence of 1 mM As(III), against aggregates generated without As(III) [%]
Ssa1 (from UniProt P10591 1-642) (natural protein)	30
Ydj1 (from UniProt P25491 1-409) (natural protein)	30
